Mean IC50 (three biological replicates) of inhibition of primary human granulocyte migration induced by the EC80 dose of CXCL8 data for one molecule are collected here from article PMC5910400.

In the assay the target is CXCL8 (human).

B1: P1156 (evasin from Ixodes ricinus), purified, C-terminal StrepII:His tag (natural protein)
chain: DGGADDDNELFTVQYCGMNCTKDEGGTWTGCTGKKEGCKCYHESGKNYGLCLSTEYTDFSQYGNPSDSEIEAAKPKRSDTLSH
B1 had a mean IC50 (three biological replicates) of inhibition of primary human granulocyte migration induced by the EC80 dose of CXCL8 of 1.8e-09 M.
